# Laboratory results as given in US20260242478A1 (published 2026).
# Where no end group is shown, it is not given here.
# Assays:
# [1] = target: T1, PSMA Fab (biotinylated (site not stated)); assay: clonal phage ELISA; biotinylated PSMA Fab on neutravidin plate, blocking buffer alone, anti-M13-HRP detection;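 also: crude clonal phage supernatants added without washing to wells preincubated with PSMA antigen or with blocking buffer alone, briefly incubated, then washed before bound phage detection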
# T1 construct: also called Anti-PSMA Fab; 006 PSMA Fab
# [2] = target: T1, PSMA Fab; assay: clonal phage ELISA; biotinylated PSMA Fab on neutravidin plate, wells pre-incubated with PSMA antigen as competitor, anti-M13-HRP detection
# Experimental: (§1) Clonal phage were harvested as crude supernatants and screened via standard ELISAs. […] Prior to the addition of clonal phage. wells were incubated with blocking buffer and PSMA antigen or blocking buffer alone. Without washing or aspirating, clonal phage supernatants were then added to the wells and incubated for a short time. Wells were then washed followed by detection of bound phage using a horse radish conjugated anti-M13 antibody.
# [3] = target: T2, PSMA Fab; assay: phage ELISA; biotinylated PSMA Fab on neutravidin plate pre-incubated with PSMA antigen as competitor, anti-M13 HRP detection;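 also: crude clonal phage supernatants tested, compared against control wells pre-incubated with blocking buffer only, without PSMA antigen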
# T2 construct: also called Anti-PSMA Fab; 006 PSMA Fab
# Experimental: as §1
# [4] = target: T2, PSMA Fab; assay: phage ELISA; biotinylated PSMA Fab on neutravidin plate, clonal phage supernatant, anti-M13 HRP detection, blocking buffer alone
# Experimental: as §1
# [5] = target: T3, PSMA Fab; assay: clonal phage ELISA; biotinylated PSMA Fab on neutravidin plate; wells pre-incubated with PSMA antigen as competitor; anti-M13-HRP detection
# T3 construct: also called Anti-PSMA Fab; 006 PSMA Fab
# Experimental: as §1
# [6] = target: T3, PSMA Fab; assay: clonal phage ELISA; biotinylated PSMA Fab on neutravidin plate; anti-M13-HRP detection; no PSMA antigen
# Experimental: as §1
# [7] = target: T4, PSMA Fab; assay: clonal phage ELISA; biotinylated PSMA Fab on neutravidin plate, anti-M13 HRP detection
# T4 construct: also called Anti-PSMA Fab; 006 PSMA Fab
# Experimental: as §1
# [8] = target: T4, PSMA Fab; assay: clonal phage ELISA on captured PSMA Fab; wells pre-incubated with PSMA antigen as competitor
# Experimental: as §1
Binder,"Phage binding ELISA signal, Anti-PSMA Fab [1]","Phage binding ELISA signal, Anti-PSMA Fab [2]","Phage binding ELISA signal, Anti-PSMA Fab with PSMA antigen [5]","Phage binding ELISA signal, Anti-PSMA Fab [6]",also measured
NVIRCEPMWMCYPS (cysteine pairing not given here; also: displayed on bacteriophage as fusion to pIII) [Phage-2678],0.874,0.0918,–,–,–
LDMLCIPAWMCEPR [Phage-2674],0.877,0.0925,–,–,–
"DGVWCVPQWMCDGY (Peptide-180 library clone, tested as clonal phage supernatant) [Phage-2368]",–,–,–,–,"Phage binding ELISA signal, Anti-PSMA Fab in the presence of PSMA antigen [3]: 0.0722; Phage binding ELISA signal, Anti-PSMA Fab [4]: 1.4"
"GLGWCTPTWMCEGF (Peptide-180 library clone, tested as clonal phage supernatant) [Phage-2369]",–,–,–,–,"Phage binding ELISA signal, Anti-PSMA Fab in the presence of PSMA antigen [3]: 0.0727; Phage binding ELISA signal, Anti-PSMA Fab [4]: 1.4"
TQMWCIPFWMCEVQ [Phage-2459],–,–,0.0885,1.27,–
PPKWCIPAWMCAGM (cysteine pairing not given here; also: displayed on bacteriophage as fusion to pIII) [Phage-2666],0.895,0.0794,–,–,–
"VMPLCKPAWMCGGF (cysteine pairing not given here; also: fused to pIII of display bacteriophage, linker and sequence not given here, Clonal phage of the Peptide-180 library; not shown: pIII filament protein of the display bacteriophage) [Phage-2852]",–,–,–,–,"Phage binding ELISA signal, Anti-PSMA Fab [7]: 2.46; Phage binding ELISA signal (Anti-PSMA Fab, with competitor) [8]: 0.134"
"QVQWCIPPWMCLED (Peptide-180 library clone, tested as clonal phage supernatant) [Phage-2372]",–,–,–,–,"Phage binding ELISA signal, Anti-PSMA Fab in the presence of PSMA antigen [3]: 0.0887; Phage binding ELISA signal, Anti-PSMA Fab [4]: 1.4"
AGKLCIPNWMCEEQ [Phage-2670],0.884,0.0913,–,–,–
"DMRLCVPEWMCLGL (cysteine pairing not given here; also: displayed on phage as fusion to pIII, linker and sequence not given here, Clonal phage of the Peptide-180 library; not shown: pIII filament protein of the display bacteriophage) [Phage-2851]",–,–,–,–,"Phage binding ELISA signal, Anti-PSMA Fab [7]: 2.46; Phage binding ELISA signal (Anti-PSMA Fab, with competitor) [8]: 0.0789"
"YEKWCIPAWMCHVA (Peptide-180 library clone, tested as clonal phage supernatant) [Phage-2367]",–,–,–,–,"Phage binding ELISA signal, Anti-PSMA Fab in the presence of PSMA antigen [3]: 0.0747; Phage binding ELISA signal, Anti-PSMA Fab [4]: 1.41"
IAKWCTPPWMCADN (cysteine pairing not given here; also: displayed on bacteriophage as fusion to pIII) [Phage-2676],0.876,0.079,–,–,–
"AEKLCKPAWMCNNM (Peptide-180 library clone, tested as clonal phage supernatant) [Phage-2365]",–,–,–,–,"Phage binding ELISA signal, Anti-PSMA Fab in the presence of PSMA antigen [3]: 0.0752; Phage binding ELISA signal, Anti-PSMA Fab [4]: 1.41"
WDHLCKPRWMCDGI (cysteine pairing not given here; also: displayed as fusion to phage pIII) [Phage-2451],–,–,0.0744,1.28,–
SVKLCIPDWMCVSE [Phage-2461],–,–,0.203,1.26,–
QEKWCIPEWMCSVR [Phage-2672],0.879,0.0823,–,–,–
ITKLCTPPWMCMDV [Phage-2668],0.886,0.0571,–,–,–
"LEKWCIPSWMCSTL (Peptide-180 library clone, tested as clonal phage supernatant) [Phage-2370]",–,–,–,–,"Phage binding ELISA signal, Anti-PSMA Fab in the presence of PSMA antigen [3]: 0.0829; Phage binding ELISA signal, Anti-PSMA Fab [4]: 1.4"
AGHWCIPMWMCQED [Phage-2679],0.874,0.0526,–,–,–
VMKWCTPQWMCEHL [Phage-2465],–,–,0.068,1.25,–

Binder,"Phage binding ELISA signal, Anti-PSMA Fab [1]","Phage binding ELISA signal, Anti-PSMA Fab [2]","Phage binding ELISA signal, Anti-PSMA Fab with PSMA antigen [5]","Phage binding ELISA signal, Anti-PSMA Fab [6]",also measured
SVHECRPLWMCQGF [Phage-2455],–,–,0.073,1.27,–
"INKWCIPEWMCAAM (Peptide-180 library clone, tested as clonal phage supernatant) [Phage-2366]",–,–,–,–,"Phage binding ELISA signal, Anti-PSMA Fab in the presence of PSMA antigen [3]: 0.0668; Phage binding ELISA signal, Anti-PSMA Fab [4]: 1.41"
"VNIRCEPAWMCMGF (cysteine pairing not given here; also: fused to phage pIII, linker not given here, Clonal phage of the Peptide-180 library; not shown: pIII filament protein of the display bacteriophage) [Phage-2850]",–,–,–,–,"Phage binding ELISA signal, Anti-PSMA Fab [7]: 2.46; Phage binding ELISA signal (Anti-PSMA Fab, with competitor) [8]: 0.108"
EEKWCIPYWMCEAV [Phage-2669],0.885,0.0691,–,–,–
SVKMCIPEWMCENI [Phage-2452],–,–,0.0646,1.28,–
SGNWCTPSWMCTGF [Phage-2677],0.874,0.062,–,–,–
VEILCKPAWMCRLD [Phage-2457],–,–,0.062,1.27,–
PVKLCKPDWMCWVS [Phage-2464],–,–,0.105,1.25,–
WDNWCTPSWMCSEL [Phage-2671],0.883,0.0853,–,–,–
VETWCIPHWMCAGF (cysteine pairing not given here; also: displayed as fusion to phage pIII) [Phage-2453],–,–,0.0685,1.27,–
"MLPLCVPAWMCSGF (cysteine pairing not given here; also: fused to pIII of display bacteriophage, linker and sequence not given here, Clonal phage of the Peptide-180 library; not shown: pIII filament protein of the display bacteriophage) [Phage-2853]",–,–,–,–,"Phage binding ELISA signal, Anti-PSMA Fab [7]: 2.44; Phage binding ELISA signal (Anti-PSMA Fab, with competitor) [8]: 0.12"
VTNWCIPEWMCNGN [Phage-2667],0.894,0.0615,–,–,–
DTNWCRPAWMCAFA (cysteine pairing not given here; also: displayed as fusion to phage pIII) [Phage-2458],–,–,0.0649,1.27,–
DGKWCIPEWMCAQQ (cysteine pairing not given here; also: displayed as fusion to phage pIII) [Phage-2463],–,–,0.0837,1.25,–
GEKWCIPSWMCVAV [Phage-2456],–,–,0.0549,1.27,–
"VDKWCIPSWMCEFY (Peptide-180 library clone, tested as clonal phage supernatant) [Phage-2371]",–,–,–,–,"Phage binding ELISA signal, Anti-PSMA Fab in the presence of PSMA antigen [3]: 0.0767; Phage binding ELISA signal, Anti-PSMA Fab [4]: 1.4"
DWKWCTPAWMCTQT [Phage-2673],0.877,0.0698,–,–,–
EHKWCIPDWMCWED [Phage-2675],0.876,0.0562,–,–,–
EMKWCTPPWMCTEL [Phage-2460],–,–,0.0656,1.26,–
DEIWCIPRWMCDGI [Phage-2462],–,–,0.0834,1.25,–
